Assay results from patent US20250092373A1, “CRISPR-MEDIATED DELETION OF FLI1 IN NK CELLS” (The Regents of the University of California, priority 2022, published 2025).

How the values were obtained:
STAT5 = test: Fli1 protein by western blot in IL-15-stimulated splenic NK cells with STAT5 inhibitor or vehicle; format: cell-based, mouse; settings: 100 μM inhibitor vs vehicle control (DMSO)
Procedure: (§1) For plate-bound antibody stimulation experiments, ˜5×10^5 isolated NK cells were stimulated with […] precoated antibody against NK1.1 (PK136) for 4 hours in complete media containing Brefeldin A (1:1000; BioLegend) and Monensin (2 uM; BioLegend). Cells were cultured in media alone as a negative control. In cytokine stimulation experiments, isolated NK cells were incubated with various concentrations of mouse IL-15 or IL-2, in the presence or absence of 100 μM CAS 285986-31-4 STAT5 inhibitor (Millipore Sigma).
(§2) Protein was extracted from enriched primary splenic NK cells using Pierce RIPA buffer (Thermo-Fisher) with Halt protease inhibitor cocktail (Thermo-Fisher) and protein concentration was quantified using the Pierce BCA Protein Assay kit (Thermo-Fisher). Samples were electrophoresed on NuPage Novex 4-12% Bis-Tris Protein Gels, transferred to PVDF membranes, and blocked for one hour at room temperature with 5% w/v nonfat milk in 1× TBS and 0.1% Tween-20. Immunoblots were performed using rabbit anti-Fli1 (Abcam ab133485), rabbit anti-β-actin (Cell Signaling CST4970), and rabbit anti-GAPDH (Millipore Sigma G9545). Proteins were detected using the SuperSignal West Pico PLUS ECL kit (Thermo-Fisher) and visualized using the Azure Biosystems c280 imager. Band density was quantified using ImageJ version 1.53.

splenic NK cells [1] = settings: 3 hours after cytokine stimulation ex vivo; published RNA-seq datasets (GSE140044); cited from earlier work
splenic NK cells [2] = test: Fli1 protein by immunoblot of purified splenic NK cells cultured with IL-2 or IL-15; format: cell-based, mouse; settings: for Fli1 protein induction: 48 h culture with increasing doses of cytokine
Procedure: as §1, §2

O=C(N/N=C/c1coc2ccccc2c1=O)c1cccnc1 [STAT5 inhibitor]
reduction of Fli1 protein (STAT5): ~50%

IL-18: cytokine used to stimulate NK cells ex vivo
Fli1 transcripts (splenic NK cells [1]): decreased Fli1 expression

B1: IL-2: mouse IL-2 cytokine used to stimulate splenic NK cells (protein, UniProt P04351 21-169, looked up)
Interleukin-2: APTSSSTSSSTAEAQQQQQQQQQQQQHLEQLLMDLQELLSRMENYRNLKLPRMLTFKFYLPKQATELKDLQCLEDELGPLRHVLDLTQSKSFQLEDAENFISNIRVTVVKLKGSDNTFECQFDDESATVVDFLRRWIAFCQSIISTSPQ
Fli1 protein induction (splenic NK cells [2]): induced by both IL-2 and IL-15 in a dose-dependent manner
Fli1 transcripts (splenic NK cells [1]): induced Fli1 transcripts

B2: IL-15: mouse IL-15 cytokine used to stimulate splenic NK cells (protein, UniProt P48346 49-162, looked up)
Interleukin-15: NWIDVRYDLEKIESLIQSIHIDTTLYTDSDFHPSCKVTAMNCFLLELQVILHEYSNMTLNETVRNVLYLANSTLSSNKNVAESGCKECEELEEKTFTEFLQSFIRIVQMFINTS
Fli1 protein induction (splenic NK cells [2]): induced by both IL-2 and IL-15 in a dose-dependent manner
Fli1 protein induced, IL-15 compared with IL-2 (splenic NK cells [2]; 48 h culture, at each dose): more Fli1 protein than IL-2 at each dose
Fli1 transcripts (splenic NK cells [1]): induced Fli1 transcripts

B3: IL-12: cytokine used to stimulate NK cells ex vivo (protein, UniProt P29459 23-219; P29460 23-328, looked up)
Interleukin-12 subunit alpha: RNLPVATPDPGMFPCLHHSQNLLRAVSNMLQKARQTLEFYPCTSEEIDHEDITKDKTSTVEACLPLELTKNESCLNSRETSFITNGSCLASRKTSFMMALCLSSIYEDLKMYQVEFKTMNAKLLMDPKRQIFLDQNMLAVIDELMQALNFNSETVPQKSSLEEPDFYKTKIKLCILLHAFRIRAVTIDRVMSYLNAS
Interleukin-12 subunit beta: IWELKKDVYVVELDWYPDAPGEMVVLTCDTPEEDGITWTLDQSSEVLGSGKTLTIQVKEFGDAGQYTCHKGGEVLSHSLLLLHKKEDGIWSTDILKDQKEPKNKTFLRCEAKNYSGRFTCWWLTTISTDLTFSVKSSRGSSDPQGVTCGAATLSAERVRGDNKEYEYSVECQEDSACPAAEESLPIEVMVDAVHKLKYENYTSSFFIRDIIKPDPPKNLQLKPLKNSRQVEVSWEYPDTWSTPHSYFSLTFCVQVQGKSKREKKDRVFTDKTSATVICRKNASISVRAQDRYYSSSWSEWASVPCS
Fli1 transcripts (splenic NK cells [1]): decreased Fli1 expression
